Our source for the protein production values is a protein production outcome set (Wang et al. 2014).

The data set in a line: label from the status in PepcDB records.
With “MSSVLSFALAAWRRLRGYRDSLEVAGGLLAGNLFDTINMVVISMFSNYLVGQRGLLALYPQLSALTGGLLLSLSSRAISNHVLGGAGPEVYLTGLAVSAASGIFLTTVFSTATSIALGLEPVMMVPAALITLLGVLLVLTLLTWIIIVMLLRLGVSPDNVMPAILTSIIDMAVLILAIVAFSMVSRMDEGIYLVAVVTFSLALAFSAAAYDFRLTIDTTFSNFALQVVEMIAGVLLSATAPVLAATGLLPVLPPLNKLAGSVAGSMASAATTSVSLYGHYLDLPSMISTLFKITVGAIPSALYIGVIGYVLASVGEGSVGPQIVLASLLVSIVLSILGSLIAWLLVVVSIRAGLDPDAIAMPLATSLVDLLGVVSLSVVAWILLST”, the protein production result is “failed”.

As for “MLEQIFILLIALVVLVWSADKFVFGASSLARNLGISPMIIGLTIVAMGSSAPEMMVAATASMQGNPDTAIGNAIGSNITNIALVLGITALLQPLTVSSQTIKREIPLILAVTALGYWLLFDNHFSFIEGIILISGFAIYIITLLVITLKKTRGKPSDDPLIIEAEQDVAAAVSMKLSLIWLGVGIILLPLSASFLVDSSVYIAKAYGISDLVIGLTIIAIGTSLPELAASIMSIIKKEDDLALGNIIGSNIFNILAVLPIAGLIAPGNIDALAASRDAPYMLGITLLLFILCFSRRLGAFRITRAKGALLLLSFIAYQVLLFSQLS”, the protein production result is “failed”. In the case of “MIVIPMAGMSSRFFKAGYTQPKYMLEAHGQTLFEHSVNSFAAYFASTPFLFIVRNVYDTAVFVREKATQLGIKQFYIAELHTETRGQAETVTLGLEELAKQGVDYQGSITVFNIDTFRPNFVFPDISQHSDGYLEVFQGGGDNWSFAKPEHAGSTKVIQTAEKNPISDLCSTGLYHFNRKEDYLEAYREYVARPSQEWERGELYIAPLYNLLIQKGLNIHYHLIARHEVIFCGVPDEYTDFLRQPQPLEHHHHHH”, the protein production entry was “not failed”. Take “MVVLAVLLPVVFGALLLLGLPRALGVLGAGLSFLLNLYLFLTHPGGVAHAFQAPLLPGAGVYWAFGLDGLSALFFLTIALTVFLGALVARVEGRFLGLALLMEGLLLGLFAARDLLVFYVFFEAALIPALLMLHLYGGEGRTRALYTFVLFTLVGSLPMLAAVLGARLLSGSPTFLLEDLLAHPLQEEAAFWVFLGFALAFAIKTPLFPLHAWLPPFHQENHPSGLADALGTLYKVGVFAFFRFAIPLAPEGFAQAQGLLLFLAALSALYGAWVAFAAKDFKTLLAYAGLSHMGVAALGVFSGTPEGAMGGLYLLAASGVYTGGLFLLAGRLYERTGTLEIGRYRGLAQSAPGLAALALILFLAMVGLPGLSGFPGEFLTLLGAYKASPWLAALAFLSVIASAAYALTAFQKTFWEEGGSGVKDLAGAEWGFALLSVLALLLMGVFPGYFARGLHPLAEAFAKLLGGGA”: the protein production entry is reported as “failed”.

Consider “MRPEHIPNIISTLRIFLVYPVVHLMLAERYTAALALFVVAGVSDAIDGFLAKHYGWQSRLGSYLDPLADKLLLVCCFVAGAWLGLLPVWMAAAVLLRDAVIVTGAIAYYLLLHPFDGQPILASKLNTLLQLAFIVAILFNRGVSELPPFLLDGLLAATLATTIASGAIYVYVWGRNYRLETAQGRR”, for which the protein production result was “failed”. Under “MGGKWSTPSFDEAARLVLGRGFHHVSLCAAGYFSDGNETIHRESVLSAIDPSVRVETIPCLNDSPHLIACLAGRVVAASRQILAFSGDLKG” stands “failed”. In the case of “MDPCTGGNGCVHICQSENGTARCACHAGYQLPEDKNICEDINECAEGLSYCGHCCVNSMGSFTCACQTGFELGADRKQCYSNWQQSQPRLYLSLSDFFLLFPVHDYTLPGIELEIVNSCEKNNSVCSHHREHEIGAPRCSCNHGHQLDSDEKTCIDLDECENGEACCAQLCINYLGGYKCRCQEGFQITSNGCECDALDDDELEEEEEE” it was “failed”; in that of “MLTLVLASAQSPDLRGRGPDMEPRSSVAKSGVALGVLLLIGLPVAAQNSKVKTNYLSHIEPCNGVGATPLDVRIDACTAFIEASQGTTAALAIAYNNRGNAYTAKGDYDKAIRDFDQSIALKPTYAKAFNNRGVAYLRKGEYELAIEAFDDAIKLDPDYVAAFVNRAGAYLKKNDHQRAAHDYDEAIRLQPDSQAARSGRCWTRAVLGAWQAALEDCDRALQSGSTSAAVYDSRGLIHLKMGEFGAAIADYNSALRAAPELASALFGRGLAKLKQGDAIGGDSDISAAKTIQGNIGDEFAHYGVGRD”, “failed”.

For “MNQQLLAKTFVELADNLVADFDLIDFLRLLTDRCVGMLDASAAGVLLADRNGELRVMAASDEQVRLLELFQLQNDEGPCLDCFRTGAPVTVPDLSAVTARWPRFAVQARRSGFGAVQALPMRLRDEVVGALNLFRATPGPFDPAATPLAQALADVATISLLQQRTAHRSTVLNEQLQTALNSRVLIEQAKGKLAERQGVDMERAFTALRTYARAHNRRLSDVARAFIDNSEPLTGLGS”, the protein production entry is reported as “failed”. In the case of “MTTFHADSSITRTFWRYAIPSIAAMVVSGLYQIIDGIFVGHYIGFEGLAGINMAWPAICILGAIGVMVGMGTGSVMSIYRGENKLEKTKVALTTGFWLLAILSIIAISCIVLLAKDILLAQGAEGQNFAYAMDYINVLMFGGFFTACATALPMLVRNDESPNVATFLLVIGALINIVLDYVFIGVMGLGLSGAALATLMAQACVTVLGIGYFFTQRSSIQITLQEVLFSWNKAKQSLSLGASALVMYLYGSFVVAMHNALMMYYGSATTVGAYAIVGYLFMLYYLLAQGIAEGAQPPISYYFGARENKKVYQIFKIALKWVIITGIGWVTILNISPELTTALFTNGDKALIAETIVGIRYHLFAMFLDGMIVLITIYFLSVNEGKKAMVISISNIVIQLPFLLILPKWFGIDGVWLAMPVSNIALIICIAPMVWNHLKTQKIIKPLPLTSTSVMSH” it was “failed”; in that of “NNINVITDQMGNLDIKSNDNINQNTQNSNVASDLNLLTQNKYLENILMMNTYGVNYDHLFLPQNVAYLAAQQLSNNIMNNRNQINAAYTSQQYPNQSIPIKNIYDQSHLKYQQNSSSWRPPLNNGNIYDGVKSNPMGLHILQNGIDLYTNVDSNSVTSAINFDKYDSIPVSVTGPDYSATNVIENFDELKLDPTIRNNILLASYQRPTPIQKNAIPAILEHRDIMACAQTGSGKTAAFLIPIINHLVCQDLNQQRYSKTAYPKCLILAPTRELAIQILSESQKFSLNTPLRSCVVYGGADTHSQIREVQMGCHLLVATPGRLVDFIEKNKISLEFCKYIVLDEADRMLDMGFEPQIRKIIEESNMPSGINRQTLMFSATFPKEIQKLAADFLYNYIFMTVGRVGSTSDSIKQEIIYMTDVEKLNYLKNIFNTTAPNTLILIFVETKKGADSLARFLLSKGYPVSSIHGDRSQVEREAALSMFRNGQCPILVATAVAARGLDIPNVKHVINYDLPSDIEEYVHRIGRTGRLGNHGRATSFYVDKNNNIAIDLVDLLKEANQIVPQWLSALADELKRNSTMGSNNKRHNQRRYKNGNFGGRDYRQGPSNVNMNSGVNPDYFISGSVAPRHAKLNNGNYFPRSNELHDQHQKQNNNNNQVISNTFHTGISASHLIPGYATFNRQQAPLHFIPHQTNNTQFLSSSGQMALYNRMQNSGHMAPNQRFPNEPIHHQQEQLPITYNFSKNLPYLGQSYSGHNNNNNNNNNTSKINDSDSCYFGNKTPR”, “not failed”. Under “MEYYQPVEINVLSAQDLNSINLLFRPTVYVSVSVTRGSRDKQVTPAAAWDKKFLRWNYRMKFYIEDDKVRRNESVFVFQIKCKRFFGSDQVVGKLFIPGCRLGVWGNIRHEPSAPCEDDIYA” stands “failed”; under “ADWPDRFNLRKPFEKLLYSGSRTGFRLASERSAKQAKGPRKADPDGLFDLSFSDDQQMLVDMLEGFALEVLRPLAHDADAEASLPAELLNQALELGLTHYGVGEVHGGMAGERTTVTTALIAEALAKGDLTLAAALLVPLSAANCIRRWGSPSQQAQWLPAFVSEEGAPLTAIAVNEPSLLFDPQKLATRARRKGSHYLLSGEKCLVLRGLEASRLIVAAKTDEGPALFLVEASAKGVERRAEPAMGLKAGGTARLRLKSVKVPADNRLAAEHFDYRAFLDHASLAWCALALGTGQAALDYVIAYCNEREAFGEPISHRQGVAFMVADIAIELDAMRLMVWRACALAERGQPFQREAYLARLLCAEKAMKIGTDAVQLLGGHGFTKEHPAERWYR”, “failed”; under “LDQILRATVEEVRAFLGTDRVKVYRFDPEGHGTVVAEARGGERLPSLLGLTFPAGDIPEEARRLFRLAQVRVIVDVEAQSRSISQPESWGLSARVPLGEPLQRPVDPCHVHYLKSMGVASSLVVPLMHHQELWGLLVSHHAEPRPYSQEELQVVQLLADQVSIAIAQAELSL”, “not failed”. Consider “VDICNHALLVGYGRVGSLLGEKLLASDIPLVVIETSRTRVDELRERGVRAVLGNAANEEIMQLAHLECAKWLILTIPNGYEAGEIVASARAKNPDIEIIARAHYDDEVAYITERGANQVVMGEREIARTMLELLETPPAGEVVTR”, for which the protein production entry is recorded as “not failed”. In the case of “MHLQKLKNIVWTKRIGHLFERVTDIENIKRAIKRAAKRKTHRPSVQRILNDIDSYARKIQEMLVNETFVPAKYTIREIYDGIKKKKRVIAVPRFYPDQCIHHAFVQVFREIVEHGADKFSCGCVPGKGTDGARKMIKHWIKSDPIGTSKVLKLDVHHCYPTMNHEALRQKLEKKIKDRKLLNLAFKLIASYQQPMADHTRMLPEVDAVGIPVGLYTSPWFCNFFFQDIDHMIAEKTGAKHHTRYVDDIVLFDSNKRRLHKALRMIADELRKVKMQVKANWQVFPLKDRPLDFLGYKFHAGAWTTLRKSIMFRISHKAKKISKISYISPTNASGMISYMGFIYNSDSWNFWKERVKPFINLKLLKGVVSNENRKQHQAACAA” it was “failed”; in that of “EKEDSKTRGEKIKSDFFELLSNHHLDSQSRWSKVKDKVESDPRYKAVDSSSMREDLFKQYIEKIAKNLDS”, “not failed”; in that of “MDIKNSEYRFSPLVIGLHWLTVILIIAVYASMELRGLAPKGALRDAMKSLHYLLGLSVLVIVVIRIGVRIQAGVKPAIQPPMPRWQATLADGMHYALYSFMLAMPLLGWLTLSAAGKPIVLFGLPVPSLIGTDVALSRQLKDVHEALATLGYVLIGLHAMAALLHHYVMRDNTVVRMLPGRRP”, “not failed”. In the case of “MSAVMARRIAVVGGGVAGLMAAWWASNYGYDVVVYEADLSSLTATRVSAGIIDPTIDISLAPVALETLSLLKRLGLGLESRLLWLHERGSCRRLERLLSDKGIIERSVAGEESIRLGRYTVNLGYGEELHVINTIIVDTGEFYSLASSASNVDIVEDSVEYVGCGSVGLKRGGSREFDAIIVAAGPWTGFISGLQALSNMLRVYRCEALIIRAGGGPFAVVDDILDFYLSIHASGDGVLGNGCCVEIASPLDGYRYSGDVLDAVISRSIERLEGLGEAELITPVSAPCVVGRDARPVLGMLPGCSRVYLLAGLDGVGVTLAPVLARLVVESIATGSQEPIPPEMAASRPTSSSESVVKEPVEEC” it was “failed”; in that of “MGEVFAGRYELVDPIGRGGVGAVWRAWDHRRRRYVAAKVLQQRDAHSLLRFVREQALRIDHPHVLAPASWAADDDQVLFTMDLVTGGSLVHLVGDYGPLPPEFVCTLLDQLLSGLAAVHGEGVVHRDIKPANLLLEATGTGRPRLRLSDFGIAMRLGEPRLTETNLVVGTPGYLAPEQMMGAEPDFPSDLFAVGLVALYLLEGAKPDAKVLVQHFAEHGTPPAPRGIPEPLWQVVATLLQPDPSARFRTATGARKALAAAVELLPEPGPDDELIEIFDQVGPLPTGFGPEGPFKRASGVDDVPTDPRRPAGTPPGVDPSPPATPPTPPPAPPWQGTPPAGPSSGLDRPSPGSPGPPPTGPDSTPASPPPGTPVTATGTPSAPGLPPASDQGWTPSTPSGPTAPPSAPSAPSAPSAPGPTRPAPHGTHSEEVPLAERPGAMSETGSFHLPPPQPTVTPTSDAAASDAAAEAAQPPAPHPAFTGGPRGLPPDRAPGRSQHPAPHGPPLTARSLAPSPARRADVPTAAYTARNPRSAPPAQHRGARRRRRPGPPARVALPVLLLALACYAVGFWALTRI”, “failed”.
